Results published in CN112961250A (CHANGCHUN GENESCIENCE PHARMACEUTICALS CO LTD, dated 2021).

Target: T1, 人VEGFC-His(金赛自构) (human)
T1 construct: also called hVEGFC-His; hVEGFC
T1 chain: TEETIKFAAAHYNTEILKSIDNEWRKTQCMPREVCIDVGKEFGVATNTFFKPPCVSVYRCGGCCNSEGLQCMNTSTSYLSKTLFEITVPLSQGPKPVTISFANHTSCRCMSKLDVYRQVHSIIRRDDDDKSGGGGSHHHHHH
Assay: ELISA, human VEGFC-His coated at 1 μg/ml

binding result: binds
B1: 抗人VEGFC单克隆抗体P01-H1L4 (antibody, V domains shown)
VH: EVRLLESGGGLVQPGGSLRLSCAASGFTFRRSTMAWVRQAPGKGLEWVSSISAQGANTYYADNVKGRFTISRDNSKNTLYLQMNSLRAEDTAVYYCARDLPAGGFGPWGRGTMVTVSS
VL: SYELTQPPSSSGTPGQRVTISCRGSSSNIGRYSVSWYQQVPGTAPKLLIYTDNQRPSGVPDRFSASKSGTSASLTITGLQSEDEADYYCAAWDDSQYGPWVFGGGTKLTVL
notes: also called 阳性对照抗体P01-H1L4; 对照抗体P01-H1L4
